In US20210054388:

Tested on: Zif268::FokI zinc finger nuclease (synthetic)
Assay: cell_activity
Settings: N. tabacum leaf, pLSLZ.D + p35SREP, 7 dpi; 6 of 8 sequenced resistant clones mutated

For “Zif268 target site in gus::nptII reporter”, the activity (% of reporter genes with NHEJ mutations) was 10.
